Data taken from PMC10757926, “Two birds with one stone: human SIRPα nanobodies for functional modulation and in vivo imaging of myeloid cells” (Frontiers in Immunology, 2023).
Where a chain is given by its changes, count along the chain named. Numbers in names are those of the source. One block for each binder: values may come before it.

Assays:
[1] = target: T1, full-length hSIRPα on U2OS cells (Homo sapiens, UniProt P78324); experiment: immunostaining of cells or tissue; live-cell immunofluorescence on U2OS cells expressing the target; unlabeled Nbs (1 nM to 100 nM) with Cy5-labeled anti-VHH, 1 h at 37°C; settings: one partner purified
T1 construct: signal-regulatory protein α (SIRPα), human, full-length, co-expressed with IRES-derived GFP; also called U2OS-hSIRPα; source: U2OS, stably expressing, on live cells

[2] = target: T2, hSIRPγ displayed on U2OS cells (Homo sapiens, UniProt Q9P1W8); experiment: as above; settings: one partner purified
T2 construct: signal-regulatory protein γ (SIRPγ), human; also called hSIRPy; source: U2OS, transiently expressing, on live cells

[3] = target: T3, hSIRPα domain 2 displayed on U2OS cells (Homo sapiens, UniProt P78324); experiment: as above; settings: one partner purified
T3 construct: signal-regulatory protein α (SIRPα), human, domain 2; also called hSIRPαD2; D2; source: U2OS, transiently expressing, on live cells

[4] = target: T4, murine SIRPα displayed on U2OS cells (Mus musculus, UniProt P97797); experiment: as above; settings: one partner purified
T4 construct: signal-regulatory protein α (SIRPα), mouse; also called mouse SIRPα; source: U2OS, transiently expressing, on live cells

[5] = target: T5, hSIRPα-V1 displayed on U2OS cells (Homo sapiens, allele V1, UniProt P78324); experiment: as above; settings: one partner purified
T5 construct: signal-regulatory protein α (SIRPα), human, allelic variant V1; also called hSIRPα variant V1; source: U2OS, transiently expressing, on live cells

[6] = target: T6, hSIRPα domain 3 displayed on U2OS cells (Homo sapiens, UniProt P78324); experiment: as above; settings: one partner purified
T6 construct: signal-regulatory protein α (SIRPα), human, domain 3; also called hSIRPαD3; D3; source: U2OS, transiently expressing, on live cells

[7] = target: T7, hSIRPβ1 displayed on U2OS cells (Homo sapiens, UniProt O00241); experiment: as above; settings: one partner purified
T7 construct: signal-regulatory protein β1 (SIRPβ1), human; source: U2OS, transiently expressing, on live cells

[8] = target: T8, biotinylated recombinant hSIRPα (extracellular portion) (Homo sapiens, UniProt P78324, biotin (Sulfo-NHS-LC-LC-Biotin)); experiment: BLI; Octet RED96e; biotinylated hSIRPα (5 µg/mL) immobilised on streptavidin biosensors; Nbs 0.625 nM to 320 nM in Octet buffer (PBS, 0.1% BSA, 0.02% Tween-20); association 240 s, dissociation 720 s; 1:1 model, global fit; settings: both partners purified
T8 construct: signal-regulatory protein α (SIRPα), human, recombinant extracellular portion; also called biotinylated hSIRPα; signal-regulatory protein α; source: bought: Acrobiosystems

[9] = target: T9, recombinant hSIRPα (human, UniProt P78324); experiment: HDX-MS; hSIRPα with Nb S8, S33 or S36; methods not in the text shown; settings: both partners purified
T9 construct: signal-regulatory protein α (SIRPα), human, recombinant extracellular portion; source: bought: Acrobiosystems

[10] = target: T10, hSIRPα on HT1080 hSIRPα knock-in cells (Homo sapiens, UniProt P78324); experiment: radioligand binding; antigen excess binding assay: 1 ng (2 MBq/µg) of ^64Cu-hSIRPα-S36K>R Nb on an increasing number of HT1080-hSIRPα cells, 1 h at 37°C; cell-bound radioactivity counted; settings: one partner purified
T10 construct: signal-regulatory protein α (SIRPα), human; source: HT1080 hSIRPα knock-in (KI) cells, on cells
T10 sequence (P78324 31-504): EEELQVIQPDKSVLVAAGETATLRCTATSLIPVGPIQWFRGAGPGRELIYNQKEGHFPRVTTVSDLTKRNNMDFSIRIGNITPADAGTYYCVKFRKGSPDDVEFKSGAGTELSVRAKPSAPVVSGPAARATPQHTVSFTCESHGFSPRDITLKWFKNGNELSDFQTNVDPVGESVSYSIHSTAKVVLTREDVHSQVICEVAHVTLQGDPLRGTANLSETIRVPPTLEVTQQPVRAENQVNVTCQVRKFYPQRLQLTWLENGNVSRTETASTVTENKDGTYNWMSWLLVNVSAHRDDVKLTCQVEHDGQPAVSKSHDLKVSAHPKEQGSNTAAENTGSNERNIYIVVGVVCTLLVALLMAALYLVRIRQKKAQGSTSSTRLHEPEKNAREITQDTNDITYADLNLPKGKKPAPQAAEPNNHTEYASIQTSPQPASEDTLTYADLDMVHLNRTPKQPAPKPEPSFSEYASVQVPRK

T4 sequence (P97797 32-513): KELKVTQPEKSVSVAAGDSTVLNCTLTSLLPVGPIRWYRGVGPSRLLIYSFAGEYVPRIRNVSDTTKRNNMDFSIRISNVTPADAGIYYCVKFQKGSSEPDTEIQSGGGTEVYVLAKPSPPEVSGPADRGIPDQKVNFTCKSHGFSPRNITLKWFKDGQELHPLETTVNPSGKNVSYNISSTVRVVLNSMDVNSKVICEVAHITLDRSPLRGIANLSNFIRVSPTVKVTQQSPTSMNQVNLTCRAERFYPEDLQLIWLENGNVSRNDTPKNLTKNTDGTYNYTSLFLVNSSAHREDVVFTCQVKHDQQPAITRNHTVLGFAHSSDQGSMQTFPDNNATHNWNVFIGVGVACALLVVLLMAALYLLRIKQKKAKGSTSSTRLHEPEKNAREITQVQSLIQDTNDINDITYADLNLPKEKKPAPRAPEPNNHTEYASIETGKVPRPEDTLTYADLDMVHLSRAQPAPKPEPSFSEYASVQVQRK
T1 sequence (P78324 31-504): as the sequence (P78324 31-504) above
T5 sequence (P78324 31-504): as above
T6 sequence (P78324 whole entry, looked up, tested part not stated): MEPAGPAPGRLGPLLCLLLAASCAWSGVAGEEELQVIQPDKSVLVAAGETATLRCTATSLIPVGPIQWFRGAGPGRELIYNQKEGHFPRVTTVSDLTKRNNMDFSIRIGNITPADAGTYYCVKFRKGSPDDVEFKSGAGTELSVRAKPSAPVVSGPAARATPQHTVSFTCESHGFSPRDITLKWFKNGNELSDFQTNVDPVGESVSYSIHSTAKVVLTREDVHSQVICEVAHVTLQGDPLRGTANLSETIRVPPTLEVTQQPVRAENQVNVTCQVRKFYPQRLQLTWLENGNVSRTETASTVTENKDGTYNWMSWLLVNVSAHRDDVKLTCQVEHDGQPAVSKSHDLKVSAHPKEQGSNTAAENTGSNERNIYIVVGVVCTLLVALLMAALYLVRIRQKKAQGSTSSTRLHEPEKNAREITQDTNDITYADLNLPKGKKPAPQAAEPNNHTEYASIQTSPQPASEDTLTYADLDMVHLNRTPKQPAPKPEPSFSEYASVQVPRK
T3 sequence (P78324 whole entry, looked up, tested part not stated): as above
T9 sequence (P78324 31-373): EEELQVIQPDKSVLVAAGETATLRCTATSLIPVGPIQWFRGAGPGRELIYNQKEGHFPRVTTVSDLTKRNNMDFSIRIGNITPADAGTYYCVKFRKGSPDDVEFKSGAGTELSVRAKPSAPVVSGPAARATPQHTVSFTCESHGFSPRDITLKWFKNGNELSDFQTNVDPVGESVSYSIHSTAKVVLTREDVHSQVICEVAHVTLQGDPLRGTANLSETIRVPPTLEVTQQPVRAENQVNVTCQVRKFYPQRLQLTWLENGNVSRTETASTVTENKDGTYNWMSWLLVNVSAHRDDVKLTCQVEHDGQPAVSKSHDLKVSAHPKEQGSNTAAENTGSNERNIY
T8 sequence (P78324 31-373): as above
T7 sequence (O00241 30-398): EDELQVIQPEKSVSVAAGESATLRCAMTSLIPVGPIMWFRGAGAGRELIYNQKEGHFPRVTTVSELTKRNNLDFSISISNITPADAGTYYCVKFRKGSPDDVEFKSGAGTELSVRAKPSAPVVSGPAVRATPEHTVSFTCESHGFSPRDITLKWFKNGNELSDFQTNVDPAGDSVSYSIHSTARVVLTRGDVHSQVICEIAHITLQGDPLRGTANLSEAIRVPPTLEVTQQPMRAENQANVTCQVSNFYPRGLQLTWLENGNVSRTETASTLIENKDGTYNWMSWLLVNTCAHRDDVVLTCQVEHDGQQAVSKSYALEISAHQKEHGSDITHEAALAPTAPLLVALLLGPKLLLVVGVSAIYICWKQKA
T2 sequence (Q9P1W8 29-387): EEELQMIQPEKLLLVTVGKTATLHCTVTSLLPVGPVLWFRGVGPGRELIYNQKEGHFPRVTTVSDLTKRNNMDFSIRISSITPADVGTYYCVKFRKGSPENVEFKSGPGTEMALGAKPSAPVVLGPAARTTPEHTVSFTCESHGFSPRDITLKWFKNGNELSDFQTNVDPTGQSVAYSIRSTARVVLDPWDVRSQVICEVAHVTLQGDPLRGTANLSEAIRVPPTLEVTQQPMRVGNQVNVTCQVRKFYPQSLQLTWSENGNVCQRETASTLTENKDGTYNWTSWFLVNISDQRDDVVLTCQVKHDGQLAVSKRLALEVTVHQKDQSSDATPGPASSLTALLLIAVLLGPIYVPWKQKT

- binding result [1]: binds
- binding result [2]: binds
- binding result [3]: binds
- binding result [4]: no binding (tested: Nbs 1 nM to 100 nM)
- binding result [5]: binds
- binding result [6]: no binding (tested: Nbs 1 nM to 100 nM)
- binding result [7]: binds
- binding result [8]: binds
- binding result [9]: binds
B1: hSIRPα-S36 Nb (VHH)
VHH: EVQLVESGGGLVQPGGSLRLSCAASGFTLDYYAIGWFRQVPGKEREGVSCISSDGGGNTYYADSVKGRFTISRDNAKNTVYLQMNSLKPEDSAVYSCAAGPTYYSGSYCRDPHSDYDYWGQGTQVTVSS
notes: selected against the entire extracellular portion of hSIRPα; also called Nb S36; original S36 Nb; source: E. coli XL-1, purified (IMAC, SEC); not shown: His tag (from the IMAC purification)

- binding result [10]: binds
B2: ^64Cu-hSIRPα-S36K>R Nb (VHH)
VHH: B1 VHH with K43R, K66R, K77R, K88R
notes: as the VHH of m15 (S36 with all four lysine residues replaced by arginine); also called ^64Cu-labeled hSIRPα-S36K>R Nb; source: E. coli, purified; chelator conjugated and radiolabeled with ^64Cu
